The test system of the data set is Escherichia coli TOP10. Briefly: shrunken log2 fold change of peptide-encoding DNA abundance (4.5 h post-induction vs induction); higher = less antimicrobial activity (less host growth inhibition). The note with it: time post-induction: 4.5 h; library: site-saturation at positions 5, 18, 19, 20.
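Note: peptides expressed intracellularly from a pBAD plasmid library in pooled LB shake-flask culture, induced with 0.3% L-arabinose, DNA abundance read by NGS, three biological replicates, DESeq2 with apeglm shrinkage.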

On to RRIRDRPPRLPRPRPRPILKPRP, for which the “shrunken log2 fold change” value was determined as 0.0239.

For the sequence RRIRMRPPRLPRPRPRPTTYPRP, the “shrunken log2 fold change” value came out at 0.0427.

For the sequence RRIRCRPPRLPRPRPRPFGWPRP, the “shrunken log2 fold change” value was 0.24.

Regarding RRIRMRPPRLPRPRPRPKMVPRP, the “shrunken log2 fold change” value was determined as 2.27.

For RRIRSRPPRLPRPRPRPSPGPRP, the “shrunken log2 fold change” value amounted to 0.312.

Regarding RRIRERPPRLPRPRPRPYFDPRP, the “shrunken log2 fold change” value was -0.926.

Turning to RRIRGRPPRLPRPRPRPEEFPRP, the “shrunken log2 fold change” value is 0.593.

Take RRIRIRPPRLPRPRPRPGCLPRP: the “shrunken log2 fold change” value was found to be 1.56.

In the case of RRIRNRPPRLPRPRPRPTFNPRP, the “shrunken log2 fold change” value was -0.506.

For the sequence RRIRFRPPRLPRPRPRPIKIPRP, the “shrunken log2 fold change” value is -0.539.

Regarding RRIRARPPRLPRPRPRPTMAPRP, the “shrunken log2 fold change” value came to 0.6.

Turning to RRIRSRPPRLPRPRPRPCELPRP, the “shrunken log2 fold change” value was 0.0778.

As to RRIRSRPPRLPRPRPRPQQCPRP, the “shrunken log2 fold change” value was -0.146.

With RRIRPRPPRLPRPRPRPPDMPRP, the “shrunken log2 fold change” value stood at 0.507.

Turning to RRIRMRPPRLPRPRPRPLNLPRP, the “shrunken log2 fold change” value is -0.0841.

Take RRIRLRPPRLPRPRPRPSDWPRP: the “shrunken log2 fold change” value is -0.106.

As to RRIRNRPPRLPRPRPRPAAKPRP, the “shrunken log2 fold change” value was -0.0209.

As for RRIRIRPPRLPRPRPRPTQFPRP, the “shrunken log2 fold change” value worked out at 0.000325.

As for RRIRPRPPRLPRPRPRPNQVPRP, the “shrunken log2 fold change” value turned out to be 0.0456.

Regarding RRIRDRPPRLPRPRPRPYRMPRP, the “shrunken log2 fold change” value was -0.0515.

Turning to RRIRCRPPRLPRPRPRPGMGPRP, the “shrunken log2 fold change” value came to 0.223.

With RRIRWRPPRLPRPRPRPTKIPRP, the “shrunken log2 fold change” value is 0.0922.

For the sequence RRIRNRPPRLPRPRPRPVLNPRP, the “shrunken log2 fold change” value is -0.261.

For RRIRVRPPRLPRPRPRPWLWPRP, the “shrunken log2 fold change” value amounted to 0.475.

Regarding RRIRIRPPRLPRPRPRPLNPPRP, the “shrunken log2 fold change” value was -0.428.

Turning to RRIRCRPPRLPRPRPRPYPKPRP, the “shrunken log2 fold change” value came out at 0.0488.

With RRIRTRPPRLPRPRPRPAIKPRP, the “shrunken log2 fold change” value amounted to 0.957.

On to RRIRRRPPRLPRPRPRPKIRPRP, for which the “shrunken log2 fold change” value was 0.0898.

Consider RRIRQRPPRLPRPRPRPAFVPRP, for which the “shrunken log2 fold change” value was -0.0399.

For the sequence RRIRSRPPRLPRPRPRPIKYPRP, the “shrunken log2 fold change” value was -0.654.

For the sequence RRIRQRPPRLPRPRPRPPRGPRP, the “shrunken log2 fold change” value amounted to 2.1.

As for RRIRTRPPRLPRPRPRPKNCPRP, the “shrunken log2 fold change” value is -0.0901.

With RRIRMRPPRLPRPRPRPESYPRP, the “shrunken log2 fold change” value was -0.00254.

As for RRIRTRPPRLPRPRPRPRYIPRP, the “shrunken log2 fold change” value is -0.368.

For RRIRARPPRLPRPRPRPFNSPRP, the “shrunken log2 fold change” value is -0.0353.

As for RRIRYRPPRLPRPRPRPTMHPRP, the “shrunken log2 fold change” value is -0.484.

With RRIRERPPRLPRPRPRPKRFPRP, the “shrunken log2 fold change” value is -0.0239.

As for RRIRKRPPRLPRPRPRPEFYPRP, the “shrunken log2 fold change” value was -0.0131.

Turning to RRIRCRPPRLPRPRPRPVVNPRP, the “shrunken log2 fold change” value was -0.18.

As to RRIRKRPPRLPRPRPRPCGVPRP, the “shrunken log2 fold change” value came out at 0.143.

Regarding RRIRPRPPRLPRPRPRPNPTPRP, the “shrunken log2 fold change” value was determined as 0.0721.

Turning to RRIRHRPPRLPRPRPRPTCCPRP, the “shrunken log2 fold change” value was -0.125.

On to RRIRERPPRLPRPRPRPPPVPRP, for which the “shrunken log2 fold change” value was 0.261.

For RRIRTRPPRLPRPRPRPHSVPRP, the “shrunken log2 fold change” value was determined as 0.0184.

On to RRIRMRPPRLPRPRPRPCDHPRP, for which the “shrunken log2 fold change” value amounted to 0.00316.

As to RRIRTRPPRLPRPRPRPSTRPRP, the “shrunken log2 fold change” value is -0.296.

Take RRIRHRPPRLPRPRPRPSIPPRP: the “shrunken log2 fold change” value was -0.868.

For RRIRLRPPRLPRPRPRPWGCPRP, the “shrunken log2 fold change” value came to 0.0644.

In the case of RRIRRRPPRLPRPRPRPICEPRP, the “shrunken log2 fold change” value turned out to be 0.356.

As for RRIRGRPPRLPRPRPRPTMSPRP, the “shrunken log2 fold change” value was found to be 0.496.

RRIRNRPPRLPRPRPRPWYYPRP: the “shrunken log2 fold change” value is -0.122.

On to RRIRHRPPRLPRPRPRPVTCPRP, for which the “shrunken log2 fold change” value was determined as 0.0254.

For RRIRIRPPRLPRPRPRPVCDPRP, the “shrunken log2 fold change” value is -0.372.

On to RRIRYRPPRLPRPRPRPWPVPRP, for which the “shrunken log2 fold change” value amounted to 0.0536.

As for RRIRFRPPRLPRPRPRPYPHPRP, the “shrunken log2 fold change” value was -1.04.

Consider RRIRYRPPRLPRPRPRPKIDPRP, for which the “shrunken log2 fold change” value was -0.344.

As for RRIRWRPPRLPRPRPRPVGWPRP, the “shrunken log2 fold change” value is 1.13.

On to RRIRVRPPRLPRPRPRPSWPPRP, for which the “shrunken log2 fold change” value was 0.493.

On to RRIRLRPPRLPRPRPRPCLTPRP, for which the “shrunken log2 fold change” value is -0.304.

On to RRIRTRPPRLPRPRPRPIIQPRP, for which the “shrunken log2 fold change” value is -0.487.

As for RRIRFRPPRLPRPRPRPFVEPRP, the “shrunken log2 fold change” value was -0.27.

For RRIRSRPPRLPRPRPRPVGRPRP, the “shrunken log2 fold change” value came out at 0.65.

For the sequence RRIRMRPPRLPRPRPRPEEQPRP, the “shrunken log2 fold change” value was -0.00184.

For the sequence RRIRLRPPRLPRPRPRPTADPRP, the “shrunken log2 fold change” value turned out to be 0.346.

Consider RRIRNRPPRLPRPRPRPATYPRP, for which the “shrunken log2 fold change” value was -1.05.

Take RRIRTRPPRLPRPRPRPQYTPRP: the “shrunken log2 fold change” value was -0.697.

Take RRIRCRPPRLPRPRPRPQTAPRP: the “shrunken log2 fold change” value was 0.225.

For RRIRFRPPRLPRPRPRPMIWPRP, the “shrunken log2 fold change” value is -0.101.

Regarding RRIRWRPPRLPRPRPRPDQFPRP, the “shrunken log2 fold change” value was -0.0202.

Regarding RRIRWRPPRLPRPRPRPAYMPRP, the “shrunken log2 fold change” value was -0.205.

RRIRWRPPRLPRPRPRPDINPRP: the “shrunken log2 fold change” value was found to be 0.235.

With RRIRMRPPRLPRPRPRPGNKPRP, the “shrunken log2 fold change” value is -0.0821.

With RRIRLRPPRLPRPRPRPTHGPRP, the “shrunken log2 fold change” value is 0.213.

In the case of RRIRARPPRLPRPRPRPFCNPRP, the “shrunken log2 fold change” value was -0.0929.

For the sequence RRIRLRPPRLPRPRPRPETHPRP, the “shrunken log2 fold change” value came out at 0.161.

For the sequence RRIRHRPPRLPRPRPRPVMPPRP, the “shrunken log2 fold change” value turned out to be 0.189.

RRIRCRPPRLPRPRPRPKWAPRP: the “shrunken log2 fold change” value came out at 0.0877.

Take RRIRSRPPRLPRPRPRPTEPPRP: the “shrunken log2 fold change” value came to 0.161.

As to RRIRIRPPRLPRPRPRPKWVPRP, the “shrunken log2 fold change” value is -0.098.

Take RRIRSRPPRLPRPRPRPYSCPRP: the “shrunken log2 fold change” value is -0.386.

With RRIRNRPPRLPRPRPRPWHCPRP, the “shrunken log2 fold change” value was -0.116.

For RRIRDRPPRLPRPRPRPSSPPRP, the “shrunken log2 fold change” value is -0.341.

In the case of RRIRGRPPRLPRPRPRPRECPRP, the “shrunken log2 fold change” value amounted to 0.562.

For RRIRQRPPRLPRPRPRPHHYPRP, the “shrunken log2 fold change” value is -0.617.

Take RRIRYRPPRLPRPRPRPACTPRP: the “shrunken log2 fold change” value is -0.292.

With RRIRIRPPRLPRPRPRPTGPPRP, the “shrunken log2 fold change” value was -0.0249.

In the case of RRIRYRPPRLPRPRPRPTMQPRP, the “shrunken log2 fold change” value was -0.0804.

In the case of RRIRVRPPRLPRPRPRPHAVPRP, the “shrunken log2 fold change” value is -0.318.

With RRIRFRPPRLPRPRPRPNHKPRP, the “shrunken log2 fold change” value is -0.405.

For the sequence RRIRARPPRLPRPRPRPWNCPRP, the “shrunken log2 fold change” value is 0.132.

Turning to RRIRWRPPRLPRPRPRPKKLPRP, the “shrunken log2 fold change” value is -0.0343.

Consider RRIRTRPPRLPRPRPRPCTYPRP, for which the “shrunken log2 fold change” value was -0.326.

On to RRIRCRPPRLPRPRPRPVNEPRP, for which the “shrunken log2 fold change” value is -0.266.

Take RRIRARPPRLPRPRPRPKQFPRP: the “shrunken log2 fold change” value was found to be 0.3.

Regarding RRIRQRPPRLPRPRPRPKNCPRP, the “shrunken log2 fold change” value was -0.0633.

For RRIRKRPPRLPRPRPRPQTNPRP, the “shrunken log2 fold change” value was 0.271.

As for RRIRARPPRLPRPRPRPRKWPRP, the “shrunken log2 fold change” value stood at 1.28.

Regarding RRIRIRPPRLPRPRPRPDNFPRP, the “shrunken log2 fold change” value is -0.0215.

As to RRIRYRPPRLPRPRPRPVFTPRP, the “shrunken log2 fold change” value was -0.574.

Take RRIRLRPPRLPRPRPRPVTLPRP: the “shrunken log2 fold change” value is -0.751.

Turning to RRIRYRPPRLPRPRPRPPWHPRP, the “shrunken log2 fold change” value was -0.507.

As to RRIRIRPPRLPRPRPRPTPMPRP, the “shrunken log2 fold change” value was -0.102.

In the case of RRIRKRPPRLPRPRPRPVSCPRP, the “shrunken log2 fold change” value stood at 0.129.

Turning to RRIRMRPPRLPRPRPRPYDTPRP, the “shrunken log2 fold change” value was -0.171.

For the sequence RRIRHRPPRLPRPRPRPQPVPRP, the “shrunken log2 fold change” value was found to be 0.259.

For the sequence RRIRGRPPRLPRPRPRPQWRPRP, the “shrunken log2 fold change” value is 0.612.

For the sequence RRIRVRPPRLPRPRPRPSGEPRP, the “shrunken log2 fold change” value was found to be 0.0818.

As to RRIRHRPPRLPRPRPRPPFCPRP, the “shrunken log2 fold change” value was 0.00537.

RRIRPRPPRLPRPRPRPGKNPRP: the “shrunken log2 fold change” value was -0.00164.

In the case of RRIRQRPPRLPRPRPRPGNWPRP, the “shrunken log2 fold change” value is -0.0235.

Take RRIRSRPPRLPRPRPRPWSYPRP: the “shrunken log2 fold change” value is 0.0308.

Turning to RRIRPRPPRLPRPRPRPFRLPRP, the “shrunken log2 fold change” value was -0.465.

For RRIRMRPPRLPRPRPRPCRAPRP, the “shrunken log2 fold change” value was found to be 0.496.

For the sequence RRIRKRPPRLPRPRPRPNMKPRP, the “shrunken log2 fold change” value worked out at 0.125.

On to RRIRPRPPRLPRPRPRPCETPRP, for which the “shrunken log2 fold change” value was 0.0508.

On to RRIRRRPPRLPRPRPRPGWEPRP, for which the “shrunken log2 fold change” value turned out to be 0.393.

RRIRQRPPRLPRPRPRPPIEPRP: the “shrunken log2 fold change” value is -0.09.

Consider RRIRMRPPRLPRPRPRPFQKPRP, for which the “shrunken log2 fold change” value was -0.00623.

Take RRIRQRPPRLPRPRPRPDISPRP: the “shrunken log2 fold change” value worked out at 0.0318.

For RRIRARPPRLPRPRPRPNIMPRP, the “shrunken log2 fold change” value is -0.266.

Regarding RRIRGRPPRLPRPRPRPKRIPRP, the “shrunken log2 fold change” value was determined as 0.147.

RRIRCRPPRLPRPRPRPIFTPRP: the “shrunken log2 fold change” value was -0.48.

With RRIRIRPPRLPRPRPRPFQFPRP, the “shrunken log2 fold change” value is -0.237.

Take RRIRERPPRLPRPRPRPYWKPRP: the “shrunken log2 fold change” value was -0.0866.

Turning to RRIRGRPPRLPRPRPRPHISPRP, the “shrunken log2 fold change” value is -0.0962.
